Results taken from patent US20160331662A1, “Compositions that Inhibit and Prevent the Formation of Dental Caries and Methods of Using the Same” (priority 2014, published 2016).
pKd: −log10 of the molar value.

Experiments:
[1] = target: salivary agglutinin (SAG) (human) (UniProt Q9UGM3); experiment: SPR, analyte over SAG immobilized on CM5 chip, 1:1 Langmuir model
iSRCR123 (human) = iSRCR123 (human) (UniProt Q9UGM3); experiment: SPR, analyte over ligand immobilized on CM5 chip, 1:1 Langmuir model
Chain of iSRCR123 (human) (Q9UGM3 102-463 limits assumed): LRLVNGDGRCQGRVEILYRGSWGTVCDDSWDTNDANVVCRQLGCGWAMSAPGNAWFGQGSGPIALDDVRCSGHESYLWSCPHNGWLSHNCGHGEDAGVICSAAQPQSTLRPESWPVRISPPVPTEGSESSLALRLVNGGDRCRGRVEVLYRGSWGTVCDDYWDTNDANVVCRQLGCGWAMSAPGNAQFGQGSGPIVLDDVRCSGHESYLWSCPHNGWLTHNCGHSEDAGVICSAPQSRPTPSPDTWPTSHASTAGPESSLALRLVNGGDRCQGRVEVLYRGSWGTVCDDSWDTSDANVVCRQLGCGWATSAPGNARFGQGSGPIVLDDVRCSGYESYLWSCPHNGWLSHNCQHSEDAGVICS

[2] = target: iSRCR1 (Deglycosylated) (human) (UniProt Q9UGM3); experiment: SPR, analyte over ligand deglycosylated on the CM5 chip, 1:1 Langmuir model
Chain of iSRCR1 (Deglycosylated) (human) (Q9UGM3 102-202): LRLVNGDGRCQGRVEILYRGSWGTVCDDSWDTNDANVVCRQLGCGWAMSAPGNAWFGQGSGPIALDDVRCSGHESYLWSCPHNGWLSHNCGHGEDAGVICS

[3] = target: iSRCR123 (Deglycosylated) (human) (UniProt Q9UGM3); experiment: as above
Chain of iSRCR123 (Deglycosylated) (human) (Q9UGM3 102-463 limits assumed): as the sequence (Q9UGM3 102-463 limits assumed) above

Chain of salivary agglutinin (SAG) (human) (Q9UGM3 whole entry): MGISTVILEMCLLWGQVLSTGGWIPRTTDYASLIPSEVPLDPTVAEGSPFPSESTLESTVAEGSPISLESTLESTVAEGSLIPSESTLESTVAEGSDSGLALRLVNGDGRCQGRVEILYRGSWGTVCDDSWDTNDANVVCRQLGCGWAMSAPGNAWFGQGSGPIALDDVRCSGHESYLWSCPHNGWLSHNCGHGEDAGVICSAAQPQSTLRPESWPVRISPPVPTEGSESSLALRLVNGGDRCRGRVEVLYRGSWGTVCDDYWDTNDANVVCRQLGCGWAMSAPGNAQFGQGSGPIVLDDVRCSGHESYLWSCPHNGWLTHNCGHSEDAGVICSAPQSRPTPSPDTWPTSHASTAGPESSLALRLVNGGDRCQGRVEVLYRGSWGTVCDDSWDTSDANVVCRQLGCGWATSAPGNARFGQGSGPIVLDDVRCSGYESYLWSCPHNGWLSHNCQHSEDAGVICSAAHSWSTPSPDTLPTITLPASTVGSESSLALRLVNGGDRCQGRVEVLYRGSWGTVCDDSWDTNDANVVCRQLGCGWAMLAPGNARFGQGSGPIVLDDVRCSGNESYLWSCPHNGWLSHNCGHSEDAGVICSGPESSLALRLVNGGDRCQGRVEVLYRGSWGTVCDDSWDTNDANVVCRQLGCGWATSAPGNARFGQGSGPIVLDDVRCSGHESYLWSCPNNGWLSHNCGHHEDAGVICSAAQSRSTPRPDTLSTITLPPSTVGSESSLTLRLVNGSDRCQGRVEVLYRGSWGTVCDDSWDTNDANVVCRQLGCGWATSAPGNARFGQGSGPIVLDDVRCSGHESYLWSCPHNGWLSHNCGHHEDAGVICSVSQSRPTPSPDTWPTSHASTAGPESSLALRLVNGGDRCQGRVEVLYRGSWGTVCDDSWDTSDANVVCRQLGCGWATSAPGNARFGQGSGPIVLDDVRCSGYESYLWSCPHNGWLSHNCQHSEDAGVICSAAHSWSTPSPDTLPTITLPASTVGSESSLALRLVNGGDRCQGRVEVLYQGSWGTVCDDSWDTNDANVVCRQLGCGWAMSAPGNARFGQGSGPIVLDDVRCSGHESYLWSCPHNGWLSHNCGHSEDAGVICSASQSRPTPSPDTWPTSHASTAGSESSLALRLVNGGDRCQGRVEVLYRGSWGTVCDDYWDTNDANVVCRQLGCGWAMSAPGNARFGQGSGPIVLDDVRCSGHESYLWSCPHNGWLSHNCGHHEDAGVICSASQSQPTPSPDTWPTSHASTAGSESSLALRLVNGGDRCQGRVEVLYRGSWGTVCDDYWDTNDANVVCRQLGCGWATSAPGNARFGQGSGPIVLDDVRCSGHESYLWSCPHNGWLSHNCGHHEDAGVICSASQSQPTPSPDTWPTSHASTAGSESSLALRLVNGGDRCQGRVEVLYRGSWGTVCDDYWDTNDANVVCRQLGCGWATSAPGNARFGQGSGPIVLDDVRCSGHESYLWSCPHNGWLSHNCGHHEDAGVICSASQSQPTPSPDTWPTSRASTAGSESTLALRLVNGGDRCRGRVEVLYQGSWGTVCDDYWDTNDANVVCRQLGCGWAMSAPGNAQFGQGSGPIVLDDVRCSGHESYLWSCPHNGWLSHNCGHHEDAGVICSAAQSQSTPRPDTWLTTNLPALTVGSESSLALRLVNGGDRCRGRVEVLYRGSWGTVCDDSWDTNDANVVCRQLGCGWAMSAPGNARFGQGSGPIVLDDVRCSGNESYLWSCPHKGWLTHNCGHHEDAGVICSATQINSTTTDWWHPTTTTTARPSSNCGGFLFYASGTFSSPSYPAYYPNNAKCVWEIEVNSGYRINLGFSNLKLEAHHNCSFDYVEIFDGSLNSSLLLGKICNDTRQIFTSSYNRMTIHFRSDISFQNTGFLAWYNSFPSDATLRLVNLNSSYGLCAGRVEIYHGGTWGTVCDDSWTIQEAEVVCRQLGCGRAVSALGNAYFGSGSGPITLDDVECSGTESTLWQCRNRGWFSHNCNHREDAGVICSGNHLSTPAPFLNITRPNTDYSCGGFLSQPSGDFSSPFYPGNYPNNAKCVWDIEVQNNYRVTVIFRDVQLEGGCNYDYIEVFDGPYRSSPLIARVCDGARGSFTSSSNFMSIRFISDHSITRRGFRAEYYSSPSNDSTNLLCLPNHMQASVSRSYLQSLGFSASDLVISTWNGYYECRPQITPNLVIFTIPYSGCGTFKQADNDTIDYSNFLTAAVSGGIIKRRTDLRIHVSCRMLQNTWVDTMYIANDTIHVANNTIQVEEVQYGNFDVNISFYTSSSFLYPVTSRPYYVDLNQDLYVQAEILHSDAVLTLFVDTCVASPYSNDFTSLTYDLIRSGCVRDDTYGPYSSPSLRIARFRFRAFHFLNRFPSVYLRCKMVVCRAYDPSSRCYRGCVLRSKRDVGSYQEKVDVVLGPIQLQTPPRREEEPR

Substance | Ka [1] | pKd [1] | Ka (iSRCR123 (human)) | pKd (iSRCR123 (human)) | pKd [2] | Ka [3] | pKd [3] | Ka [2]
A3VP1^SspB (S. gordonii DL1 SspB, residues 386-805) (from UniProt P16952 386-805) | 3.19e+07 M⁻¹ | 7.50 | 5.53e+07 M⁻¹ | 7.74 | 6.47 | 1.38e+06 M⁻¹ | 6.14 | –
C123^SspB (S. gordonii DL1 SspB, residues 913-1406) (from UniProt P16952 913-1406) | 1.07e+07 M⁻¹ | 7.03 | – | – | 5.96 | – | 5.21 | 921000 M⁻¹
